Measurements taken from US20240122983A1 (SHATTUCK LABS, published 2024).
Like-named read-outs stand apart in the source and are kept apart here.

T1: recombinant mouse m4-1BB protein (mouse, UniProt P20334 24-187)
T1 sequence (looked up): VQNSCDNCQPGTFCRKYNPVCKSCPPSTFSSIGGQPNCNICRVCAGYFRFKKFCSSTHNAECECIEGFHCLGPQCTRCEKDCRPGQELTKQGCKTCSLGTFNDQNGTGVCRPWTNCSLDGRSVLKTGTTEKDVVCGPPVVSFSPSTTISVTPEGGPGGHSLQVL

T2: recombinant mouse mFLT3 protein (mouse, UniProt Q00342 28-544, limits assumed)
T2 sequence (looked up): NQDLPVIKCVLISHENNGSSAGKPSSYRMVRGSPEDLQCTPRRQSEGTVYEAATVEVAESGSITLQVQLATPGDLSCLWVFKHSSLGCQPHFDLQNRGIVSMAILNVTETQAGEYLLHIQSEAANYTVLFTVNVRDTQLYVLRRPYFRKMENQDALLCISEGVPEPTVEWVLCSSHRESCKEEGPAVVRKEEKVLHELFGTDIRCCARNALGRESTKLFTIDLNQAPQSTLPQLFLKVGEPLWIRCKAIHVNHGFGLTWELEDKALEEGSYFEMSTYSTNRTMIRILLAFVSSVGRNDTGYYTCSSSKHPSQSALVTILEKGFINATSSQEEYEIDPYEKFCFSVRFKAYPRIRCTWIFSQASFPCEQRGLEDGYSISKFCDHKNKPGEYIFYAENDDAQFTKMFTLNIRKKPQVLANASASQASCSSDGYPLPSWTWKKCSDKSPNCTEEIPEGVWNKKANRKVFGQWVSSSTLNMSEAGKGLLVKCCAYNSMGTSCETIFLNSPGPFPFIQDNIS

B1: mFLT3L-Fc-4-1BBL chimeric protein (Fc fusion, murine;mouse (printed as mFc), UniProt P49772 27-189, looked up)
chain: GTPDCYFSHSPISSNFKVKFRELTDHLLKDYPVTVAVNLQDEKHCKALWSLFLAQRWIEQLKTVAGSKMQTLLEDVNTEIHFVTSCTFQPLPECLRFVQTNISHLLKDTCTQLLALKPCIGKACQNFSRCLEVQCQPDSSTLLPPRSPIALEATELPEPRPRQVPRDCGCKPCICTVPEVSSVFIFPPKPKDVLTITLTPKVTCVVVDISKDDPEVQFSWFVDDVEVHTAQTQPREEQFNSTFRSVSELPIMHQDWLNGKEFKCRVNSAAFPAPIEKTISKTKGRPKAPQVYTIPPPKEQMAKDKVSLTCMITDFFPEDITVEWQWNGQPAENYKNTQPIMNTNGSYFVYSKLNVQKSNWEAGNTFTCSVLHEGLHNHHTEKSLSHSPGKRTEPRPALTITTSPNLGTRENNADQVTPVSHIGCPNTTQQGSPVFAKLLAKNQASLCNTTLNWHSQDGAGSSYLSQGLRYEEDKKELVVDSPGLYYVFLELKLSPTFTNTGHKVQGWVSLVLQAKPQVDDFDNLALTVELFPCSMENKLVDRSWSQLLLLKAGHRLSVGLRAYLHGAQDAYRDWELSYPNTTSFGLFLVKPDNPWE
notes: extracellular domain;domain: hinge-CH2-CH3 Fc domain; Expressed in 293 cells, purified on protein A; also called murine FLT3L-Fc-4-1BBL
B2: mCD40L-Fc (Acro) (Fc fusion, mouse, UniProt P27548 112-260, looked up)
fusion chain: MQRGDEDPQIAAHVVSEANSNAASVLQWAKKGYYTMKSNLVMLENGKQLTVKREGLYYVYTQVTFCSNREPSSQRPFIVGLWLKPSSGSERILLKAANTHSSSQLCEQQSVHLGGVFELQAGASVFVNVTEASQVIHRVGFSSFGLLKL
notes: soluble part fused to Fc; also called commercially available mCD40L-Fc (Acro Biosystems)

Legend:
[1] = molecular target: T1, recombinant mouse m4-1BB protein; assay: Dual ELISA: capture anti-FLT3L (R&D AF427), detection with m41BB-His (Acro), tertiary anti-His/HRP (Abcam)
Experimental: Capture was performed with an anti-FLT3L antibody, followed by detection of the co-stimulatory domain with a his-tagged recombinant protein, and visualized using an anti-his/HRP antibody.

[2] = molecular target: T1, recombinant mouse m4-1BB protein; assay: ELISA: plate-bound m41BB (3.3ug/ml), detection anti-m41BBL (1:1000) and anti-goat IgG (1:10,000)
From the text: (§1) Recombinant mFLT3L protein was used to generate a standard curve. […] A mouse whole IgG was used to generate a standard curve. […] Recombinant m4-1BBL protein was used to generate a standard curve.

[3] = molecular target: T3, anti-mIgG; assay: ELISA: plate-bound anti-mIgG (10ug/ml), detection anti-mIgG-HRP (1:1000)
T3 construct: capture antibody of the mFc ELISA; also called Capture Ab: anti-mIgG(10ug/ml)
From the text: as §1
Recombinant mFLT3L protein was used to generate a standard curve. […] A mouse whole IgG was used to generate a standard curve. […] Recombinant mOX40L protein was used to generate a standard curve.

[4] = molecular target: T3, anti-mIgG; assay: as above; remark: listed apart in the source
From the text: as §1

[5] = molecular target: T2, recombinant mouse mFLT3 protein; assay: Octet biolayer interferometry, mFLT3-his captured on the sensor
From the text: Octet was used to determine on-/off-rates and binding affinities to the target receptors.

Binder	EC50 (read off the curve) [1] [nM]	EC50 (read off the curve) [2] [nM]	EC50 (read off the curve) [3] [nM]	EC50 (read off the curve) [4] [nM]	binding result [5]
B1	~1	~9	~7	~7	
B2					no binding (tested: concentration not printed)
